Patent US20140072613A1 (published 2014)

T1: Haspin(h) (human, UniProt Q8TF76 471-798, limits assumed)
T1 sequence (looked up): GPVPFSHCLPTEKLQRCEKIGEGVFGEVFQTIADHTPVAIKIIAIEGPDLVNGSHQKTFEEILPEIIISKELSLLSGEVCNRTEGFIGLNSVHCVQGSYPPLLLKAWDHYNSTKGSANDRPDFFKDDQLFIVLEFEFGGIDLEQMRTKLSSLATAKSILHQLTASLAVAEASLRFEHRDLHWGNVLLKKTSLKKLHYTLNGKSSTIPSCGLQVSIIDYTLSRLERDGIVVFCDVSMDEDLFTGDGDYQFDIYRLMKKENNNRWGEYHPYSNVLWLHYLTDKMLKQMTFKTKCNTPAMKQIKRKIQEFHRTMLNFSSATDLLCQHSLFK

T2: PKD2(h) (human, UniProt Q9BZL6 1-878)
T2 sequence (looked up): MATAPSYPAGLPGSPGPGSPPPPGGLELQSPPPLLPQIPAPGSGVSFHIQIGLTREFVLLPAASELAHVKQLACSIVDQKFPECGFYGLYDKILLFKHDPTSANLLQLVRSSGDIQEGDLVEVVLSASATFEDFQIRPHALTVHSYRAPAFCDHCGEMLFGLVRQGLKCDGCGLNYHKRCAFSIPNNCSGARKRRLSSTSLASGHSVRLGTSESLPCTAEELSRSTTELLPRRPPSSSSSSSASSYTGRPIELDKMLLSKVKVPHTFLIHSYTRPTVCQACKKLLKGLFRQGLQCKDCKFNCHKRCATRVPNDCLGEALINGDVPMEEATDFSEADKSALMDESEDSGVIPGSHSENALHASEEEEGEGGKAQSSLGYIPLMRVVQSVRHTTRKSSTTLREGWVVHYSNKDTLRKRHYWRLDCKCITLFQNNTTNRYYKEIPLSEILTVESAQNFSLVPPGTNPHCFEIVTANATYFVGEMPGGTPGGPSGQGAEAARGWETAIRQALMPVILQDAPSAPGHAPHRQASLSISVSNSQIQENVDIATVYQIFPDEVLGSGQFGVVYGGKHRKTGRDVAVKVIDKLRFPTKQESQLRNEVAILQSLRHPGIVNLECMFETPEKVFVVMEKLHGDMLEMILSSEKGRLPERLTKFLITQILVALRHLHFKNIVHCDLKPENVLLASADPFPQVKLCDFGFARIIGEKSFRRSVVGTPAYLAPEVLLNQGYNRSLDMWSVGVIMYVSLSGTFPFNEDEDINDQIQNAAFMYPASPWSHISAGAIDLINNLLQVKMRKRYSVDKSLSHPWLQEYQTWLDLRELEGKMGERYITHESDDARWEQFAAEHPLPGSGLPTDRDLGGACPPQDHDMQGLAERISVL

T3: DYRK2(h) (human, UniProt Q92630 1-601, limits assumed)
T3 sequence (looked up): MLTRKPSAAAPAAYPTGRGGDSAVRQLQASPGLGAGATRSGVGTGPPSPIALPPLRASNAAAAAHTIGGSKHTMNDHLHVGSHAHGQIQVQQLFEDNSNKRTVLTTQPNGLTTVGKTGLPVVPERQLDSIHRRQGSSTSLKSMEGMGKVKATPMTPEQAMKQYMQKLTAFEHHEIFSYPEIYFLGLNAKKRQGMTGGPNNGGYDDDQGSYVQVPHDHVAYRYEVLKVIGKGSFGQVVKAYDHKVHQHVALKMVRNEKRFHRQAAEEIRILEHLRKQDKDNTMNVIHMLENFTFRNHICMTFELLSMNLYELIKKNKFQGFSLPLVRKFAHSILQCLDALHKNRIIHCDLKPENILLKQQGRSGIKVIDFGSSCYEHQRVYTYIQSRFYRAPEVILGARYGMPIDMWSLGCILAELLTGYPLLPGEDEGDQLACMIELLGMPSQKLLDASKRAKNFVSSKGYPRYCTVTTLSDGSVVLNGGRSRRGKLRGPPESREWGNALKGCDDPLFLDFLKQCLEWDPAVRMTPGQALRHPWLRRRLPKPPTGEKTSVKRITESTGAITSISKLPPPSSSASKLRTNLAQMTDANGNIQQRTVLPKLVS


Tests used:
Assay in all cases: cell-based or functional assay
MAPKAP-K2(h) = MAPKAP-K2(h) (human, UniProt P49137 46-400)
MAPKAP-K3(h) = MAPKAP-K3(h) (human, UniProt Q16644 1-382, limits assumed)
TrkB(h) = TrkB(h) (human, UniProt Q16620 455-822, limits assumed)
CaMKI(h) = CaMKI(h) (human, UniProt Q14012 1-370)
Flt4(h) = Flt4(h) (human, UniProt P35916 800-1363, limits assumed)
Haspin(h) = molecular target: T1, Haspin(h)
IGF-1R(h), activated = IGF-1R(h), activated (human, UniProt P08069 959-1367, limits assumed)
AMPKα1(h) = AMPKα1(h) (human, UniProt Q13131 1-559)
MRCKα(h) = MRCKα(h) (human, UniProt Q5VT25 1-473, limits assumed)
PKD2(h) = molecular target: T2, PKD2(h)
PRK2(h) = PRK2(h) (human, UniProt Q16513 501-984, limits assumed)
Pyk2 (h) = Pyk2 (h) (human, UniProt Q14289 1-1009, limits assumed)
WNK2(h) = WNK2(h) (human, UniProt Q9Y3S1 166-489, limits assumed)
DYRK2(h) = molecular target: T3, DYRK2(h)

Sequence of Flt4(h) (P35916 800-1363 limits assumed): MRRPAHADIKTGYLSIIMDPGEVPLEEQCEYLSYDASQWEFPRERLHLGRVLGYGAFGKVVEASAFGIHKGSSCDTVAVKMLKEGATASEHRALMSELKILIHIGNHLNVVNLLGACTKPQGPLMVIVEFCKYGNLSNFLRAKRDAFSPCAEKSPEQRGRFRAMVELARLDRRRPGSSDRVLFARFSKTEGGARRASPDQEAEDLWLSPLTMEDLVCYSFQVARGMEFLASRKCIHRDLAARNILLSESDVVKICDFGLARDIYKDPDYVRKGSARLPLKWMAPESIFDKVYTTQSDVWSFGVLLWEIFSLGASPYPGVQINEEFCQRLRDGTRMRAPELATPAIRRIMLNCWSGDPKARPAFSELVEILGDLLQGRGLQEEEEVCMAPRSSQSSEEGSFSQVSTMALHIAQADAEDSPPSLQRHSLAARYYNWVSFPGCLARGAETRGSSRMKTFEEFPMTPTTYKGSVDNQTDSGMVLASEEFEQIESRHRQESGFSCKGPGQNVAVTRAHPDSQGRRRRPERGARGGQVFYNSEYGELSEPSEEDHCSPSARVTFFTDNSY
Sequence of CaMKI(h) (Q14012 whole entry): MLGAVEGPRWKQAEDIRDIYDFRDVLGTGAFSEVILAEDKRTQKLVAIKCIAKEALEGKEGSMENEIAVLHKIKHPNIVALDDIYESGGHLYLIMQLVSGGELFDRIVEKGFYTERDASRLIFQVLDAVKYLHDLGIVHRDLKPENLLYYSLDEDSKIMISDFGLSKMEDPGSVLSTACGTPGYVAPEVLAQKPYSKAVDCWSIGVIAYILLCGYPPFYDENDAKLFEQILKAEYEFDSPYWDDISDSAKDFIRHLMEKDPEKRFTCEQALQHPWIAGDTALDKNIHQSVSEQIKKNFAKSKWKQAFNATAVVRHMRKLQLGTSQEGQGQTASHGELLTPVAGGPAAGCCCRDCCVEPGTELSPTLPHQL
Sequence of IGF-1R(h), activated (P08069 959-1367 limits assumed): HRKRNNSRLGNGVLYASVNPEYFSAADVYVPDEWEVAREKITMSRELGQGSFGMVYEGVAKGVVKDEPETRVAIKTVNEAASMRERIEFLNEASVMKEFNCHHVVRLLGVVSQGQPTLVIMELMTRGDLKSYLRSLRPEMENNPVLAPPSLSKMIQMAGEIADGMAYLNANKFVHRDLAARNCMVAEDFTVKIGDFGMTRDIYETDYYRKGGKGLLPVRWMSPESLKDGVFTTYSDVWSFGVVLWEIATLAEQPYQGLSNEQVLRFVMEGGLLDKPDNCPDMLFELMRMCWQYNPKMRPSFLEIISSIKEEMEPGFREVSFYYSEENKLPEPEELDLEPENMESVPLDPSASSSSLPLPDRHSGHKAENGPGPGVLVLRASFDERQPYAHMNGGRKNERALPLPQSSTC
Sequence of AMPKα1(h) (Q13131 whole entry): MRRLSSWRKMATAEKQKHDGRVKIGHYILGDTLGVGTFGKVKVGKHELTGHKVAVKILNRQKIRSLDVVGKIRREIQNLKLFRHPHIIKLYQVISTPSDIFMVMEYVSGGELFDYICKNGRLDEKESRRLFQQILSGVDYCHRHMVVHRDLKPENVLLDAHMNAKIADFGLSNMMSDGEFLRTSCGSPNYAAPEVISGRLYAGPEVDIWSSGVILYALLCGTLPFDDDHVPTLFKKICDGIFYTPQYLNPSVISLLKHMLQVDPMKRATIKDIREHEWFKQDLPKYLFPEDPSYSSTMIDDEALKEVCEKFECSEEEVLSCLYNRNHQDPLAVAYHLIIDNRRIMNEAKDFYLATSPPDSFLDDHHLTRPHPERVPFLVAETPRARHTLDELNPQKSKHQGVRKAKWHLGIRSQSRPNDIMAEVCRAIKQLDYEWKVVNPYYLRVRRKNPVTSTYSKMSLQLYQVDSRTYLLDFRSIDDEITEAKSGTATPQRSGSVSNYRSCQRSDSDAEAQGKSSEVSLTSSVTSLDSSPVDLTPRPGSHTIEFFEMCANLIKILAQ
Sequence of MAPKAP-K2(h) (P49137 46-400 limits assumed): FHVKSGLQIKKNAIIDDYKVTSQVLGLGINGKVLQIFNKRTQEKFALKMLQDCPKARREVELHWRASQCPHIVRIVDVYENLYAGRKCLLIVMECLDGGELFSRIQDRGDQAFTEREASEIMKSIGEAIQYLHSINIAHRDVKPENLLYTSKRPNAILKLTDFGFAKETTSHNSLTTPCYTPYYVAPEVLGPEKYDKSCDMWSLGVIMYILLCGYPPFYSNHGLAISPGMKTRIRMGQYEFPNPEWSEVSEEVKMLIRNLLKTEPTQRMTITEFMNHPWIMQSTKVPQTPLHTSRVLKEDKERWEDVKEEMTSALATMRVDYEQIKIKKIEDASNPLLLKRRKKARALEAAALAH
Sequence of MRCKα(h) (Q5VT25 1-473 limits assumed): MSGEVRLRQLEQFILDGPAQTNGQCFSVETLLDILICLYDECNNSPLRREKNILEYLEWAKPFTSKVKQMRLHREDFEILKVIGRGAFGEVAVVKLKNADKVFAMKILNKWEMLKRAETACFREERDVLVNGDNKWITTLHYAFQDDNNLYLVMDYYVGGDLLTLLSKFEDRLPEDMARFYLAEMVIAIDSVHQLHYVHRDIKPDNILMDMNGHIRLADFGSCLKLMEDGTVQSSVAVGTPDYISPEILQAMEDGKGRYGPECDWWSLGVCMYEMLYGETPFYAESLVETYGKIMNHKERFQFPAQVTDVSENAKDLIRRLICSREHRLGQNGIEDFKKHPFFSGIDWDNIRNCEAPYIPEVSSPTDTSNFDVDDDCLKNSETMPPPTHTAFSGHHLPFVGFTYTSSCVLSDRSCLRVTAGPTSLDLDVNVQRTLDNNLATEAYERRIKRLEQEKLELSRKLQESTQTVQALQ
Sequence of TrkB(h) (Q16620 455-822 limits assumed): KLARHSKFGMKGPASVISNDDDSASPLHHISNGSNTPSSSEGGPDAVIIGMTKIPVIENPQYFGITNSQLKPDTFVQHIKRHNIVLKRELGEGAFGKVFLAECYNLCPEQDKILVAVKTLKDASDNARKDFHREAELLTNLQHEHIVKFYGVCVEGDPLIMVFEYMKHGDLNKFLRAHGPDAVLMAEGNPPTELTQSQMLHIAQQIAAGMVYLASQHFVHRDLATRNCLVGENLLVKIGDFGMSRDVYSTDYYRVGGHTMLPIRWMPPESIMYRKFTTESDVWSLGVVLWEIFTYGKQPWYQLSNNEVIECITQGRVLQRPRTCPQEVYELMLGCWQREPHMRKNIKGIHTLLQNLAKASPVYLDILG
Sequence of WNK2(h) (Q9Y3S1 166-489 limits assumed): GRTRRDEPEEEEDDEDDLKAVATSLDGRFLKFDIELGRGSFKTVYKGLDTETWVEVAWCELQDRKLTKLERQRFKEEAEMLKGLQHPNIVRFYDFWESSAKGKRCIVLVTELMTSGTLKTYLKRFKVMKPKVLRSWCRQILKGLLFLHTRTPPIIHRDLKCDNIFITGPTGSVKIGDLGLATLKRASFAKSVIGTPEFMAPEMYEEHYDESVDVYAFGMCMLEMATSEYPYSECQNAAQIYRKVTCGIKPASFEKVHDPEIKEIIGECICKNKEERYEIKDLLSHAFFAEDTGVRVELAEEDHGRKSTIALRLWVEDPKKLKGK
Sequence of PRK2(h) (Q16513 501-984 limits assumed): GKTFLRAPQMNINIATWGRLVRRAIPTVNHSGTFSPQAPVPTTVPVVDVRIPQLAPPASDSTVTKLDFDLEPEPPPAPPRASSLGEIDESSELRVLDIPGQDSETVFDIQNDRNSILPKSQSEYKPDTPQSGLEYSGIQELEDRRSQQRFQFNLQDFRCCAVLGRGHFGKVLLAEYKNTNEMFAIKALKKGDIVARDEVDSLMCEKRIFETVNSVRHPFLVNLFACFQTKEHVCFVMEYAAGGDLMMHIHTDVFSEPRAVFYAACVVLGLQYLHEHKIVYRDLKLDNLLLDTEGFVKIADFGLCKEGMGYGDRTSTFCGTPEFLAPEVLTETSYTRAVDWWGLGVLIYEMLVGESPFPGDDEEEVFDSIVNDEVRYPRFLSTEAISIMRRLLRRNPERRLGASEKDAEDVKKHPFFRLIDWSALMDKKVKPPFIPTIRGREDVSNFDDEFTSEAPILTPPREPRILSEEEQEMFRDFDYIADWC
Sequence of MAPKAP-K3(h) (Q16644 whole entry): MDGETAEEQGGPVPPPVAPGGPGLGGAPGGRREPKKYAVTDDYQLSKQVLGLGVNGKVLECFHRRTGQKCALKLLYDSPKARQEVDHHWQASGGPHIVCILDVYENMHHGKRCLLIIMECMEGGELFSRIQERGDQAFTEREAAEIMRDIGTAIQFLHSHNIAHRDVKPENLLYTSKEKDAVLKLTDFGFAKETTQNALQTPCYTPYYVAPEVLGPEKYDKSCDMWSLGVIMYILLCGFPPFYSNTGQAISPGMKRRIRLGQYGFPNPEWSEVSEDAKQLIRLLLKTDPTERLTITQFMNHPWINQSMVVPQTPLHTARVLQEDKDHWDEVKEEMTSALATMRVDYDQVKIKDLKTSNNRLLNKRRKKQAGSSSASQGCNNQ

| Binder | inhibition of kinase activity at 100 µM (MAPKAP-K2(h)) [%] | inhibition of kinase activity at 100 µM (MAPKAP-K3(h)) [%] | inhibition of kinase activity at 100 µM (TrkB(h)) [%] | inhibition of kinase activity at 100 µM (CaMKI(h)) [%] | % activity, 100 µM (Flt4(h)) [%] | % activity, 100 µM (Haspin(h)) [%] | % activity, 100 µM (IGF-1R(h), activated) [%] | % activity, 100 µM (AMPKα1(h)) [%] | % activity, 100 µM (MRCKα(h)) [%] | % activity, 100 µM (PKD2(h)) [%] | % activity, 100 µM (PRK2(h)) [%] | % activity, 100 µM (Pyk2 (h)) [%] | % activity, 100 µM (WNK2(h)) [%] | % activity, 100 µM (DYRK2(h)) [%] |
| --- | --- | --- | --- | --- | --- | --- | --- | --- | --- | --- | --- | --- | --- | --- |
| FAKLAARLYRKALARQLGVAA [MMI-0300] | > 65 | > 65 | > 65 | > 65 | 83 | 48 | 80 | 71 | 104 | 33 | 33 | 47 | 64 | 155 |
| KAFAKLAARLYRKALARQLGVAA [MMI-0400] | > 65 | > 65 | > 65 | > 65 | 89 | 36 | 77 | 87 | 97 | 25 | 27 | 34 | 54 | 195 |
